Test results taken from article PMC6687201, “Atg11 tethers Atg9 vesicles to initiate selective autophagy” (PLoS Biology, 2019).
Substitutions are numbered along the chain they refer to. Numbers in names are those of the source. Each block holds one binder with its values, some of them ahead of it.

Assays:
[1] = target: T1, recombinant purified Atg11 (Atg11-His6) (yeast, UniProt Q12527 1-1178, Atto565 label in the GUV experiments); experiment: pull-down; 10 μg recombinant GST-tagged bait coupled to Glutathione-resin, with recombinant Atg11; SDS-PAGE; conditions: both partners purified
T1 construct: N-terminal residual glycine-proline from PreScission protease digestion; Atg11, yeast; expressed from pCoofy37-Atg11; measured molecular weight 136 kDa; also called His-tagged Atg11; Atg11^Atto565; source: E. coli BL21 (DE3), coexpressed with chaperones from pG-KJE8, purified (Ni-NTA, PreScission digestion, gel filtration); not shown: His6, C-terminal, kept
T1 sequence: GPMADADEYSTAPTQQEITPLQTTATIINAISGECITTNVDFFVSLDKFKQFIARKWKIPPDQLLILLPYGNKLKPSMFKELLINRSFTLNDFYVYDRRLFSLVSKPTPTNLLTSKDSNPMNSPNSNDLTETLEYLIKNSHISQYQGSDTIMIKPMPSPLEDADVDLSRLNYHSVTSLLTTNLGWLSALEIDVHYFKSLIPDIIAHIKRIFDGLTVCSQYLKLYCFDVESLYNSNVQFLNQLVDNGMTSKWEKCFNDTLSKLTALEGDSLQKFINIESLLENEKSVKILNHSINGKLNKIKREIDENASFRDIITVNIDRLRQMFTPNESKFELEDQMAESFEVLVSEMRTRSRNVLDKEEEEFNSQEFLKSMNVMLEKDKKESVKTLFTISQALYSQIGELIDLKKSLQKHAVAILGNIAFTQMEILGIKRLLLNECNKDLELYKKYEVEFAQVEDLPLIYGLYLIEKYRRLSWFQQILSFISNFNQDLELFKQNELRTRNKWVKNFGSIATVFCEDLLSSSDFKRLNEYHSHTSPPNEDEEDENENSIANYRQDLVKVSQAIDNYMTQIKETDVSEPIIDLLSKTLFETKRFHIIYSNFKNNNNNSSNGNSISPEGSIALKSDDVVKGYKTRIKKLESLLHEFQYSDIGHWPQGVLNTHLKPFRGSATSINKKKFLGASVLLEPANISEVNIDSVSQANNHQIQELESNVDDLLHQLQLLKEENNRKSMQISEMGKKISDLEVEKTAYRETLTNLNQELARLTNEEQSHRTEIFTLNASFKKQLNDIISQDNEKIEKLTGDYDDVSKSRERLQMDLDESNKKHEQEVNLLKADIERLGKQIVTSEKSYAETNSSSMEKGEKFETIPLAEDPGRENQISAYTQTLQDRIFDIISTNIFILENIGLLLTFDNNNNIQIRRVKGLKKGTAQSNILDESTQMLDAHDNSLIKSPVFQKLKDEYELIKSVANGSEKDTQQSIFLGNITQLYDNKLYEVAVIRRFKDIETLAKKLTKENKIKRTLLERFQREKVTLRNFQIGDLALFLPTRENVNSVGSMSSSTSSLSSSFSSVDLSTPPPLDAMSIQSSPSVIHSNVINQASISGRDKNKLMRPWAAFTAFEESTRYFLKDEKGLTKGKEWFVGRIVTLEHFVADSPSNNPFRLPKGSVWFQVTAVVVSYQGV

[2] = target: T2, Atg9^core reconstituted in proteoliposomes (yeast, UniProt Q12142 281-779); experiment: cell-based or functional assay
T2 sequence (looked up): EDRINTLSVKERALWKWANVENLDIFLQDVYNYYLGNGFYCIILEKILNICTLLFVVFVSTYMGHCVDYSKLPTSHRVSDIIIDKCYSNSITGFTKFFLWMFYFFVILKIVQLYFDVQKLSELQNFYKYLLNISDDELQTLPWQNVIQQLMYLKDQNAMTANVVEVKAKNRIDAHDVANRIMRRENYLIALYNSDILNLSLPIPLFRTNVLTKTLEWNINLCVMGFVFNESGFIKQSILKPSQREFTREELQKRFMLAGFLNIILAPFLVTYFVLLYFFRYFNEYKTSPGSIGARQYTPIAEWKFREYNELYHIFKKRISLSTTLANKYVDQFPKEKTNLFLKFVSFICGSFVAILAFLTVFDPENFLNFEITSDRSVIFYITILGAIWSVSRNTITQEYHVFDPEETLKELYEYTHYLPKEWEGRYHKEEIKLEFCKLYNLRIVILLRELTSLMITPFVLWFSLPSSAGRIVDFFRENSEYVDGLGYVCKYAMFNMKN

[3] = target: T2, Atg9^core reconstituted in …; experiment: co-floatation with proteoliposomes; competition: Atg11 and Atg17 coincubated with Atg9-PLs at different stoichiometric ratios (Atg11 kept constant); floated fraction on SDS-PAGE, amounts from band intensities; conditions: both partners purified
HA-tagged Atg9 = target: T3, HA-tagged Atg9 (S. cerevisiae, UniProt Q12142 1-997); experiment: co-IP; competition: purified Atg17 (0, 1, 4 μM) added to lysates of nonstarved cells; IP of Atg11-myc, HA-Atg9 detected by blot; conditions: one partner purified
T3 construct: Atg9, transmembrane autophagy protein, yeast; also called HA-Atg9; source: yeast cells expressing HA-tagged Atg9, in lysate
T3 sequence (looked up): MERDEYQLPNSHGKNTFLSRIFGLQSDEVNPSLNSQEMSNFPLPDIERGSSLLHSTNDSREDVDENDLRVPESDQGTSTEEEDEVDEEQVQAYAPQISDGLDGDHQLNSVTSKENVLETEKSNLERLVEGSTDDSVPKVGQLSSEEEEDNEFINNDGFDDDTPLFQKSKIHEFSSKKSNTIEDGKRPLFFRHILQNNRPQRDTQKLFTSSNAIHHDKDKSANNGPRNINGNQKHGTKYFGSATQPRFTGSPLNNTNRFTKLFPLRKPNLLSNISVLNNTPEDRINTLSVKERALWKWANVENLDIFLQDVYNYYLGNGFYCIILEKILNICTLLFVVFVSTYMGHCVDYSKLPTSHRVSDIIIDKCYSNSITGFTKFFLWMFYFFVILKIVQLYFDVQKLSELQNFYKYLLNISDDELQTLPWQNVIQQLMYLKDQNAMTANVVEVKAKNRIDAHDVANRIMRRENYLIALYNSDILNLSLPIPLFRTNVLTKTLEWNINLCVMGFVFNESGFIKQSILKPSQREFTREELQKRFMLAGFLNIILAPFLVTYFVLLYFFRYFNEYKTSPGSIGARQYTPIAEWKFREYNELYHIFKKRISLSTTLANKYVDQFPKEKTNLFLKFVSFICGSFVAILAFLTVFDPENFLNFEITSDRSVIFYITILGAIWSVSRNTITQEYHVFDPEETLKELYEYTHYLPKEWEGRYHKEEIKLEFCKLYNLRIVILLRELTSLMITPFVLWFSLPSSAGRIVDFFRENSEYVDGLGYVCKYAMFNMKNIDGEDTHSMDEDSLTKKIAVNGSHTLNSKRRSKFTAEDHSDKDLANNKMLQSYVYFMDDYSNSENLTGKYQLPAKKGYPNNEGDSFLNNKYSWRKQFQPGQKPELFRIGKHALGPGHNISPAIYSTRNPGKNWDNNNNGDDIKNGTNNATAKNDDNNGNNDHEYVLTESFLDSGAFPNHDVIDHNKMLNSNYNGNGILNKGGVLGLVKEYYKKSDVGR

binding result [1]: binds
B1: GST-tagged wild-type Atg29 (natural protein, yeast, UniProt Q12092 1-213, looked up)
chain: MIMNSTNTVVYIKVKGRRPQGFLDPPKFEWNGTKERQLWTMVSNLNYSQDQIDWQNLSKIFETPEFFLKKRTYKLFAEHLELLQLQLEKKRDLEKYSNDQVNEGMSDLIHKYTPTLQNDNLLNVSASPLTTERQDSEEVETEVTNEALQHLQTSKILNIHKKTSDSENKPNDKLDKDGINKEMECGSSDDDLSSSLSVSKSALEEALMDRLQF
notes: Atg29, yeast; also called GST-Atg29^WT; Atg29^WT

binding result [1]: binds
B2: GST-tagged phosphomimetic Atg29 (Atg29^SD) (natural protein, yeast, UniProt Q12092 1-213, looked up)
chain: B1 chain with S197D, S199D, S201D
notes: Atg29, yeast, phosphomimetic variant; also called GST-Atg29^SD; Atg29^(S197D, S199D, S201D); source: recombinant, purified

binding result [1]: binds
B3: GST-Atg31-Atg29^SD subcomplex (complex, yeast)
chain 1: MNVTVTVYDKNVKYRLEENIKNNKGPSNDDQPAYNNESKSTDGSDYAMFPTNIKYIFEDNNDELVDSSDAALTAGIDKVGDELENVIIVQLDESGSLEDITLISDQYELLSHRTNSLSLEENQMRTLSSHGDDKSNDEEEELSVDSDRFRVDSDIELDVISQFCDLSPFLRDLSLNDLIKLYVTQNEQLQMLSNSV
chain 2: B1 chain with S197D, S199D, S201D
notes: Atg31, yeast; Atg29, yeast, phosphomimetic variant; also called GST-tagged Atg31 (31) and Atg29^SD (29^SD); source: recombinant, coexpressed and purified as subcomplex

binding result [1]: binds
B4: GST-Atg31-Atg29^WT subcomplex (complex, yeast)
chain 1: B3 chain 1
chain 2: B1 chain
notes: Atg31, yeast; Atg29, yeast; also called GST-tagged Atg31 (31) and Atg29^WT (29); source: recombinant, coexpressed and purified as subcomplex

hydrodynamic radius of Atg9 vesicles against control SUVs in the presence of Atg17 (dynamic light scattering; vesicle tethering) [2]: 2 fold
molar excess of Atg17 over Atg11 for similar recovery of both [3]: 25 fold
molar excess of Atg17 over Atg11 for equal binding to Atg9 (HA-tagged Atg9): 25 fold
B5: recombinant purified Atg17 (natural protein, yeast, UniProt Q06410 1-417, looked up)
chain: MNEADVTKFVNNARKTLTDAQLLCSSANLRIVDIKKKLSSWQLSISKLNFLIVGLRQQGKFLYTILKEGIGTKLIQKQWNQAVLVVLVDEMKYWQYEITSKVQRLDGIVNELSISEKDDTDPSKLGDYISRDNVNLLNDKLKEVPVIERQIENIKLQYENMVRKVNKELIDTKLTDVTQKFQSKFGIDNLMETNVAEQFSRELTDLEKDLAEIMNSLTQHFDKTLLLQDKKIDNDEREELFKVVQGDDKELYNIFKTLHEVIDDVDKTILNLGQFLQAKIKEKTELHSEVSEIINDFNRNLEYLLIFKDISNLIDSFKNSCTQDIQTTKELCEFYDNFEESYGNLVLEAKRRKDVANRMKTILKDCEKQLQNLDAQDQEERQNFIAENGTYLPETIWPGKIDDFSSLYTLNYNVKNP
notes: Atg17, scaffolding protein of nonselective autophagy, yeast
